Experimental data reported in EP1242600B1 (ZymoGenetics, Inc., dated 2001).
Several values for one entry are separate records, joined by “and”; a condition that tells them apart may be missing. Equal values may be shown once.

Biological target: T1, CRF2-4/zcytor11 heterodimeric receptor on BaF3/CRF2-4/zcytor11 cells (human, UniProt Q08334 20-325, limits assumed)
T1 sequence 1: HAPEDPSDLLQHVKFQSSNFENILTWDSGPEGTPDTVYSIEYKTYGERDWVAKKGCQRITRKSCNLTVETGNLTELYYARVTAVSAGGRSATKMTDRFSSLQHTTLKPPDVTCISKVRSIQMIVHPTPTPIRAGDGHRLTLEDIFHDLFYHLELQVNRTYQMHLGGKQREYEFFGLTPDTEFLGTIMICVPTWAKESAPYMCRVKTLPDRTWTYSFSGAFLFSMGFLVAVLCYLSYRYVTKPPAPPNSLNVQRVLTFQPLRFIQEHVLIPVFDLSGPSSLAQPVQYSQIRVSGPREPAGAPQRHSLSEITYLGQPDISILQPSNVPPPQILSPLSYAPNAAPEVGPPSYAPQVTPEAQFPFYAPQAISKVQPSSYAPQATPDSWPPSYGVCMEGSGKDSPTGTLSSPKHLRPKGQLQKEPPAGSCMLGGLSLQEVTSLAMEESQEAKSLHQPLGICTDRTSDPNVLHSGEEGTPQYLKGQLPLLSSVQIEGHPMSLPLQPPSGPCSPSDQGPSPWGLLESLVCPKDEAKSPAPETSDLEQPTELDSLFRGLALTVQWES
T1 sequence 2: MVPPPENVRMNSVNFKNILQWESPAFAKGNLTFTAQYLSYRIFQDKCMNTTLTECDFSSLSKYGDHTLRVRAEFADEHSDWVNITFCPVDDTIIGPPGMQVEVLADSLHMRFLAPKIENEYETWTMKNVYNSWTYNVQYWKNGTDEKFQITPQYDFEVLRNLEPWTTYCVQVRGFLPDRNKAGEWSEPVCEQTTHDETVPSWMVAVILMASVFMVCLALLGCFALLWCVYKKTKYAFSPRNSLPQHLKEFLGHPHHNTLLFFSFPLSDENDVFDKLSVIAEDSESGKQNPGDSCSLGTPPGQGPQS
Experiment: cell-based or functional assay

B1: ZCYTO18-CEE polypeptide purified from BHK 570 cells (ligand)
chain: APISSHCRLDKSNFQQPYITNRTFMLAKEASLADNNTDVRLIGEKLFHGVSMSERCYLMKQVLNFTLEEVLFPQSDRFQPYMQEVVPFLARLSNRLSTCHIEGDDLHIQRNVQKLKDTVKKLGESGEIKAIGELDLLFMSLRNACIEYMPME
- proliferation of BaF3/CRF2-4/zcytor11 cells (Alamar Blue): ~15 fold over background and 2 fold induction
